From the DeepSol protein solubility set

experiment: soluble on expression in E. coli; label from the status in PepcDB or PDB records

Row | Sequence | soluble on expression in E. coli
1 | MGSDKIHHHHHHMTKNHKISVDQLQVGTHISLPVSWKDHPFLFSSFKIKDAAQIELIRHLGITEVFFNPEKSDTQPLALDAIQGDSIDLDDMVDASDTDEMMLLKNEMEVKKQDSIDKQQQMRRSINKTEKQFDRSVAMMRSVVSKLGSRPLNAVNDAKELIHNLTDLLLNSDNLVLHLMGDAKPEEGIYHHSLNVSVLCMLLGKGLGWSREEIELIGIGALFHDVGKLKIPSNILNKRTPLSVPEVNFIKQHPLMSINFLKLADNFPAAAEPLIANHHEFLDGSGSPQGLKADKLDNLSQLIAVVNEYDNLCNGNMQTKGKTPFAALSFLYKNYTKKLNKEYVGRMIKTLGIYPPGCIIELSSGQFGLVMSVNLKNILFPRIMVYDPQVPKDQAPIIDLEQEGIKIVRCLPPAALPENIFKYLNPREKVSYGLGSES | not soluble
2 | QAAPSQVVVIRQERAGQTSVSLLWQEPEQPNGIILEYEIKYYEKDKEMQSYSTLKAVTTRATVSGLKPGTRYVFQVRARTSAGCGRFSQAMEVETGKP | soluble
3 | MKHMPRKMYSCAFETTTKVEDCRVWAYGYMNIEDHSEYKIGNSLDEFMAWVLKVQADLYFHNLKFAGAFIINWLERNGFKWSADGLPNTYNTIISRMGQWYMIDICLGYKGKRKIHTVIYDSLKKLPFPVKKIAKDFKLTVLKGDIDYHKERPVGYKITPEEYAYIKNDIQIIAEALLIQFKQGLDRMTAGSDSLKGFKDIITTKKFKKVFPTLSLGLDKEVRYAYRGGFTWLNDRFKEKEIGEGMVFDVNSLYPAQMYSRLLPYGEPIVFEGKYVWDEDYPLHIQHIRCEFELKEGYIPTIQIKRSRFYKGNEYLKSSGGEIADLWLSNVDLELMKEHYDLYNVEYISGLKFKATTGLFKDFIDKWTYIKTTSEGAIKQLAKLMLNSLYGKFASNPDVTGKVPYLKENGALGFRLGEEETKDPVYTPMGVFITAWARYTTITAAQACYDRIIYCDTDSIHLTGTEIPDVIKDIVDPKKLGYWAHESTFKRAKYLRQKTYIQDIYMKEVDGKLVEGSPDDYTDIKFSVKCAGMTDKIKKEVTFENFKVGFSRKMKPKPVQVPGGVVLVDDTFTIK | soluble
4 | MGSDKIHHHHHHMRWIAPTEKDVAAATLEKRLWAAADELRANSGLKSAEYSQPILGLIFLKFADARFAVRRAELAKVTTGRRGSRVDDPASYHAEGVLFLASEARFSELLEFPEGGRDGKTLGQAVDDAMRAVERDNEQLAGVLPKTYQQFKARPLKELLKAFSAIPVDLEGDSFGKIYEYFLGEFAMAEGQGGGEFYTPQPIVRLMVEILEPFKGRVLDPACGSGGMFVQSARFVSEHKKNGGLAIHGVEKVDTTGQLCRMNLAVHGLEGDIRHGGEINSYYDDPHNAVGRFDFVLANPPFNVDKVDKDRIRDAVGPGRRFPFGVPNVDNANYLWIQLFYSALNESGRAGFVMASSAPDARASEQELRRKLIESRAVDVIISVGSKMFYTVALPCTLWFLDRGKPKDRRDKVLFIDAQHIYRQVDRAHRDWTEAQIGFLANVARLFRREEVDLTFGGAEAKYRLREVFGNKPTYADVAGFCKAATISEIEKQAWSLNPGRYVGAAQGEEVSDEDFRTQFEGLAEEFETLTAEAREFEKVITKTAAEILG | not soluble
5 | MGSDKIHHHHHHMYGVMIMKLKTNVFHFTPFSKKQLQVLTWWVNPSTKDSEAIICDGSVRAGKTVIMSLSYVMWAMHTFNGQQLGMAGKTIGSFRRNVLRPLKQMLAGRGYKVIDHRTDNMFEVVKNGKANYFFIFGGKDEASQDLVQGLTAAGFFFDEVALMPQSFVNQATARVSVSGGKYWFNMNPEGPYHWFKLNWIDDLKGKRALRIHFRMEDNPSLSEDVIGRYKRNYSGVFYQRYILGLWVMSEGVIYDNFNRETMVVSEPPGRCTKYYVSVDYGTQNPTVFLLWGFYNGVWYCLKEYYYDGRHSARQKTDDQYANDLDEFVGNINARIIIDPSAASFIAVLRNRHYRIIRADNDVLNGIRETQSAMNNGLIKFTDNLPNLFKELASYIWDDKASSNGEDKVIKEHDHAMDSMRYFVYMVLRHNNKAKVIKNKYF | not soluble
6 | MSDIFNSPQNKASILTALMKSTTGDVEDVLIPKRFRPAKDPLDSPQAAAQFLKDNKYRILRPRAIPTMVELETDAALPRLRQMVEDGKLKDTVSVPEGTTAFYPKYYPFHKPDHDEVGTFGAPDITLLKQLTFFLLENDFPTGPETLRQVREAIATLQYGSGSYSGQLNRLLAMKGVATGRNPNKTPKTVGYTNEQLAKLLEQTLPINTPKHEDPDLRWAPSWLINYTGDLSTDKSYLPHVTIKSSAGLPYIGKTKGDTTAEALVLADSFIRDLGRAATSADPEAGVKKTITDFWYLSCGLLFPKGERYTQVDWDKKTRNIWSAPYPTHLLLSMVSTPVMNESKLNITNTQTPSLYGFSPFHGGMDRIMTIIRDSLDNDEDLVMIYADNIYILQDNTWYSIDLEKGEANCTPQHMQAMMYYLLTRGWTNEDGSPRYNPTWATFAMNVAPSMVVDSSCLLMNLQLKTYGQGSGNAFTFLNNHLMSTIVVAEWVKAGKPNPMTKEFMDLEEKTGINFKIERELKNLRETIVEAVETAPQDGYLADGSDLPPIRPGKAVELDLLGWSAIYSRQMEMFVPVLENERLIASAAYPKGLENKALARKPGAEIAYQIVRYEAIRLVGGWNNPLLETAAKHMSLDKRKRLEVKGIDVTGFLDDWNNMSEFGGDLEGITLSEPLTNQTLVDINTPLDSFDPKARPQTPRSPKKTLDEVTTAITSGTYKDPKSAVWRLLDQRTKLRVSTLRDQALALKPASSSVDNWAEATEELAQQQQLLMKANNLLKSSLTETREALETIQSDKIIAGKSNPEKNPGTAANPVVGYGEFSEKIPLTPTQKKNAKRREKQRRNQ | not soluble
7 | GEEEKKRTARTDYWLQPEIIVKIITKKLGEKYHKKKAIVKEVIDKYTAVVKMIDSGDKLKLDQTHLETVIPAPGKRILVLNGGYRGNEGTLESINEKTFSATIVIETGPLKGRRVEGIQYEDISKLA | soluble
8 | MLNHIVMWKIKEDVEDKEKVKLGIKNGLEGLFGKIEELREIRVERFMESTSTHDVALFVKVDNEDTLKKYATNPLHVEIIKNYIKPFVYDRVCIDFFELEHHHHHH | not soluble
9 | MSRGFALLGWLNPAQRQAVTAPCGHLCINAAAGTGKTTTVAARILWLQLVQDVPPEAILAVTFSRAARAHLLDRVEAFTRVLGAGGAVPTFTLHGLAYRILRIAIGAGETWLRPGFGVISVGRDRINPLLQEHAADLLGDLSDPWDLPTRVEQYSRALDAVRQGCADIEEGLPLEPDDLPDGVLYVPARIETPNLRKVWRRYNRMLRARNYLDYPGMVTEAILALYREGKTLQRARANLEYIIVDEYQDTSRAQEELIQLLVGERTSVTVVGDSDQAIYTFNGADIGNILHFAERILETGSALPVLEPVHLVENYRSSACILDAANRVLDRIHGPGRKQLVPYPGTVDEPVESYRRRNLEVVRVHAGSLDQAAFWAASEIARLVTEEGIEPSDIAVLVRKDTEHAPQGRAVRLALERLGIRAEEQERDPIRSSHVYEVVRDLCGDPDYYGEDIGDMIERIAAGEFRDALGDVTPDEATALLREAQAAGAEFAGEVVDFVFEQGAPDATPASLEGVQVRTIHSAKGLEFRVVFLMYLSDREFPHGAHPDVAEERRLYYVGLTRAQERLYVLGQPGVRNEDFFGAIDGSGVVTVHVEPWRDRSPSSEEAVDDETLRLIQEARRRQHDMFLRRP | soluble
10 | MSLDRVYHEFGATLRQLYQQDTPIIALCAAGIVIRTLAPLLLEKGAEPPVLAVAEDGSAVVPLLGGLGGVNVMAREIAAGLGVAAAITTSGELRFGTCLLNPPSGYALGDLELGKRFVSDLLGGESVRIEGAAPWLAAAKLPENDQARLTIRVGSAEREPVANELLIYPRSVLVACRGQRLAGEADSDLATHIRQALHQARIAVQSVACLLAADRDMADRALHQAAAQLGVPLRFLPAADSVAELAQQAVPQLLPPLKVGEDIAIAVASQPLDPEQIGRPREGHHHHHH | not soluble
11 | MGSDKIHHHHHHMRLAFFGDVHGNFEALKAVLEDMENKGVDEVFCLGDLVGYGPDPEAVVQTIMEKNIKTIMGNYDDAVGYSKESCGCSYAPGRETEVGDISLKWSIENTSEKTREFLRNLPKKLSFEVEGVRFLLVHGSPLNELLEYVKPNTPPDRLKKIVESVEENVVVNGHTHLPMVKWVMGKLVLNPGSAGRPKDGDPRASYMIVDVENGTVSFEIVRVRYDVKTTVEKIARNGLPVELATVLALGQTFDMGPGKVTFTLGR | not soluble
